The text below walks through data of patent US12180485B2, “Repressible control of gene expression” (TRUSTEES OF BOSTON UNIVERSITY, priority 2020, dated 2024).

For this assay, the system named is mCherry expression in HEK293 FT cells. Description: Inducible split RfxCas13d (GIB, RAP, ABA, Dano, GRZ CID domains; NES/NLS variants) mCherry knockdown, leakiness and inducibility. The following applies: inducible polypeptide systems of Tables 18-22. The format is cell-based. An excerpt:
FIG. 6A-6C is a series of schematics and graphs showing that split RfxCas13d's reconstituted and functioned to knockdown mCherry expression in HEK293 FT cells FIG. 6A is a schematic showing split sites selected throughout RfxCas13d sequence. FIG. 6B is a bar graph showing mCherry expression under 4 conditions for gibberellin-inducible, rapalog-inducible, and abscisic acid-inducible inducible split Cas13d designs. In FIG. 6B and FIG. 6C, the left-right order of the bars for each split site is the same as the left-right order of the legend for each bar graph.
FIG. 7A-7E is a series of schematics and graphs showing a functional and inducible split Cas13d design. FIG. 7A is a bar graph showing additional split sites selected in RfxCas13d and tested with GIB CID domains. […] In FIG. 7A and FIG. 7C, the left-right order of the bars for each split site is the same as the left-right order of the legend. FIG. 7B is a schematic showing the design to compartmentalize splits. Compartmentalizing moieties facilitates the reduction of leakiness. […] FIG. 7D is a schematic showing the experiment flow for testing reversibility of the inducible split Cas13d's.
FIG. 8A-8B is a series of schematics and graphs showing that split RfxCas13d's reconstituted upon drug-induced dimerization and knocked down mCherry expression in HEK293 FT cells. FIG. 8A is a bar graph showing quantification of system performance. The left-right order of the bars for each split site is the same as the top-down order of the legend. […] System performance in leakiness score (left axis) and induced activity (right axis) by GIB, RAP, ABA, and Dano-inducible split Cas13d designs.
FIG. 10A-10B is a series of schematics and graphs showing performance optimization through separating split Cas13d moieties in different cellular compartments. […] The left-right order of the bars for each bar graph is the same as the top-down order of the legend.
FIG. 11 is a series of schematics and graphs showing the testing of reversed orientation (dark grey dots) of CID domains with respect to split Cas13d pieces against original orientations (light grey dots) designed for GIB, ABA, Dano, and GRZ inducible systems.

B1: SEQ ID NO: 814: inducible system polypeptide, probably Table 20 (GID-GAI) (protein)
chain: MIEKKKSFAKGMGVKSTLVSGSKVYMTTFAEGSDARLEKIVEGDSIRSVNEGEAFSAEMADKNAGYKIGNAKFSHPKGYAVVANNPLYTGPVQQDMLGLKETLEKRYFGESADGNDNICIQVIHNILDIEKILAEYITNAAYAVNNISGLDKDIIGFGKFSTVYTYDEFKDPEHHRAAFNNNDKLINAIKAQYDEFDNFLDNPRLGYFGQAFFSKEGRNYIINYGNECYDILALLSGLRHWVVHNNEEESRISRTWLYNLDKNLDNEYISTLNYLYDRITNELTNSFSKNSAANVNYIAETLGINPAEFAEQYFRFSIMKEQKNLGFNITKLREVMLDRKDMSEIRKNHKVFDSIRTKVYTMMDFVIYRYYIEEDAKVAAANKSLPDNEKSLSEKDIFVINLRGSFNDDQKDALYYDEANRIWRKLENIMHNIKEFRGNKTREYKKKDAPRLPRILPAGRDVSAFSKLMYALTMFLDGKEINDLLTTLINKFDNIQSFLKVMPLIGVNSGGSGSGSSGGSGTMKRDHHHHHHQDKKTMMMNEEDDGNGMDELLAVLGYKVRSSEMADVAQKLEQLEVMMSNVQEDDLSQLATETVHYNPAELYTWLDSMLTDLNPKKKRKV
Regarding B1, the “performance in the tested conditions” value is given as “highest performance”.

B2: SEQ ID NO: 810: inducible system polypeptide, probably Table 20 (GID-GAI) (protein)
chain: MIEKKKSFAKGMGVKSTLVSGSKVYMTTFAEGSDARLEKIVEGDSIRSVNEGEAFSAEMADKNAGYKIGNAKFSHPKGYAVVANNPLYTGPVQQDMLGLKETLEKRYFGESADGNDNICIQVIHNILDIEKILAEYITNAAYAVNNISGLDKDIIGFGKFSTVYTYDEFKDPEHHRAAFNNNDKLINAIKAQYDEFDNFLDNPRLGYFGQAFFSKEGRNYIINYGNECYDILALLSGLRHWVVHNNEEESRISRTWLYNLDKNLDNEYISTLNYLYDRITNELTNSFSKNSAANVNYIAETLGINPAEFAEQYFRFSIMKEQKNLGFNITKLREVMLDRKDMSEIRKNHKVFDSIRTKVYTMMDFVIYRYYIEEDAKVAAANKSLPDNEKSLSEKDIFVINLRGSFNDDQKDALYYDEANRIWRKLENIMHNIKEFRGNKTREYKKKDAPRLPRILPAGRDVSAFSKLMYALTMFLDGKEINDLLTTLINKFDNIQSFLKVMPLIGVNAKFVEEYAFFKDSAKIADELRLIKSFARMGEPIADARRAMYIDAIRILGTNLSGGSGSGSSGGSGTMKRDHHHHHHQDKKTMMMNEEDDGNGMDELLAVLGYKVRSSEMADVAQKLEQLEVMMSNVQEDDLSQLATETVHYNPAELYTWLDSMLTDLNPKKKRKV
In the case of B2, the “performance in the tested conditions” value is “highest performance”.

B3: SEQ ID NO: 391: PV1-ABI-L1-Cas13-508C-BGHpA (protein)
chain: MPLYGFTSICGRRPEMEDAVSTIPRFLQSSSGSMLDGRFDPQSAAHFFGVYDGHGGSQVANYCRERMHLALAEEIAKEKPMLCDGDTWLEKWKKALFNSFLRVDSEIGSVAPETVGSTSVVAVVFPSHIFVANCGDSRAVLCRGKTALPLSVDHKPDREDEAARIEAAGGKVIQWNGARVFGVLAMSRSIGDRYLKPSIIPDPEVTAVKRVKEDDCLILASDGVWDVMTDEEACEMARKRILLWHKKNAVAGDASLLADERRKEGKDPAAMSAAEYLSKLAIQRGSKDNISVVVVDLKDYKDDDDKSGGSGSGSSGGSGTAKFVEEYAFFKDSAKIADELRLIKSFARMGEPIADARRAMYIDAIRILGTNLSYDELKALADTFSLDENGNKLKKGKHGMRNFIINNVISNKRFHYLIRYGDPAHLHEIAKNEAVVKFVLGRIADIQKKQGQNGKNQIDRYYETCIGKDKGKSVSEKVDALTKIITGMNYDQFDKKRSVIEDTGRENAEREKFKKIISLYLTVIYHILKNIVNINARYVIGFHCVERDAQLYKEKGYDINLKKLEEKGFSSVTKLCAGIDETAPDKRKDVEKEMAERAKESIDSLESANPKLYANYIKYSDEKKAEEFTRQINREKAKTALNAYLRNTKWNVIIREDLLRIDNKTCTLFRNKAVHLEVARYVHAYINDIAEVNSYFQLYHYIMQRIIMNERYEKSSGKVSEYFDAVNDEKKYNDRLLKLLCVPFGYCIPRFKNLSIEALFDRNEAAKFDKEKKKVSGNSGSGPKKKRKVPKKKRKV
As for B3, the “performance in the tested conditions” value was “highest performance”.

B4: SEQ ID NO: 1206: inducible system polypeptide, probably Table 22 (reader and repressible protease) (protein)
chain: MAPKKKRKVGIHGVPAASSDEEEARELIERAKEAAERAQEAAERTGDPRVRELARELKRLAQEAAEEVKRDPSSSDVNEALKLIVEAIEAAVDALEAAERTGDPEVRELARELVRLAVEAAEEVQRNPSSSDVNEALHSIVYAIEAAIFALEAAERTGDPEVRELARELVRLAVEAAEEVQRNPSSRNVEHALMRIVLAIYLAEENLREAEESGDPEKREKARERVREAVERAEEVQRDPSGWLNHSGGSGSGSSGGSGTAKFVEEYAFFKDSAKIADELRLIKSFARMGEPIADARRAMYIDAIRILGTNLSYDELKALADTFSLDENGNKLKKGKHGMRNFIINNVISNKRFHYLIRYGDPAHLHEIAKNEAVVKFVLGRIADIQKKQGQNGKNQIDRYYETCIGKDKGKSVSEKVDALTKIITGMNYDQFDKKRSVIEDTGRENAEREKFKKIISLYLTVIYHILKNIVNINARYVIGFHCVERDAQLYKEKGYDINLKKLEEKGFSSVTKLCAGIDETAPDKRKDVEKEMAERAKESIDSLESANPKLYANYIKYSDEKKAEEFTRQINREKAKTALNAYLRNTKWNVIIREDLLRIDNKTCTLFRNKAVHLEVARYVHAYINDIAEVNSYFQLYHYIMQRIIMNERYEKSSGKVSEYFDAVNDEKKYNDRLLKLLCVPFGYCIPRFKNLSIEALFDRNEAAKFDKEKKKVSGNSGSGPKKKRKV
As for B4, the “performance in the tested conditions” value is recorded as “highest performance”.

B5: SEQ ID NO: 813: inducible system polypeptide, probably Table 20 (GID-GAI) (protein)
chain: MAASDEVNLIESRTVVPLNTWVLISNFKVAYNILRRPDGTFNRHLAEYLDRKVTANANPVDGVFSFDVLIDRRINLLSRVYRPAYADQEQPPSILDLEKPVDGDIVPVILFFHGGSFAHSSANSAIYDTLCRRLVGLCKCVVVSVNYRRAPENPYPCAYDDGWIALNWVNSRSWLKSKKDSKVHIFLAGDSSGGNIAHNVALRAGESGIDVLGNILLNPMFGGNERTESEKSLDGKYFVTVRDRDWYWKAFLPEGEDREHPACNPFSPRGKSLEGVSFPKSLVVVAGLDLIRDWQLAYAEGLKKAGQEVKLMHLEKATVGFYLLPNNNHFHNVMDEISAFVNAECSGGSGSGSSGGSGTAKFVEEYAFFKDSAKIADELRLIKSFARMGEPIADARRAMYIDAIRILGTNLSYDELKALADTFSLDENGNKLKKGKHGMRNFIINNVISNKRFHYLIRYGDPAHLHEIAKNEAVVKFVLGRIADIQKKQGQNGKNQIDRYYETCIGKDKGKSVSEKVDALTKIITGMNYDQFDKKRSVIEDTGRENAEREKFKKIISLYLTVIYHILKNIVNINARYVIGFHCVERDAQLYKEKGYDINLKKLEEKGFSSVTKLCAGIDETAPDKRKDVEKEMAERAKESIDSLESANPKLYANYIKYSDEKKAEEFTRQINREKAKTALNAYLRNTKWNVIIREDLLRIDNKTCTLFRNKAVHLEVARYVHAYINDIAEVNSYFQLYHYIMQRIIMNERYEKSSGKVSEYFDAVNDEKKYNDRLLKLLCVPFGYCIPRFKNLSIEALFDRNEAAKFDKEKKKVSGNSGSGPKKKRKVPKKKRKV
As to B5, the “performance in the tested conditions” value was “highest performance”.

B6: SEQ ID NO: 392: PV1-Cas13 N507-L1-PYL-NLS-BGHpA (protein)
chain: MIEKKKSFAKGMGVKSTLVSGSKVYMTTFAEGSDARLEKIVEGDSIRSVNEGEAFSAEMADKNAGYKIGNAKFSHPKGYAVVANNPLYTGPVQQDMLGLKETLEKRYFGESADGNDNICIQVIHNILDIEKILAEYITNAAYAVNNISGLDKDIIGFGKFSTVYTYDEFKDPEHHRAAFNNNDKLINAIKAQYDEFDNFLDNPRLGYFGQAFFSKEGRNYIINYGNECYDILALLSGLRHWVVHNNEEESRISRTWLYNLDKNLDNEYISTLNYLYDRITNELTNSFSKNSAANVNYIAETLGINPAEFAEQYFRFSIMKEQKNLGFNITKLREVMLDRKDMSEIRKNHKVFDSIRTKVYTMMDFVIYRYYIEEDAKVAAANKSLPDNEKSLSEKDIFVINLRGSFNDDQKDALYYDEANRIWRKLENIMHNIKEFRGNKTREYKKKDAPRLPRILPAGRDVSAFSKLMYALTMFLDGKEINDLLTTLINKFDNIQSFLKVMPLIGVNSGGSGSGSSGGSGTAPTQDEFTQLSQSIAEFHTYQLGNGRCSSLLAQRIHAPPETVWSVVRRFDRPQIYKHFIKSCNVSEDFEMRVGCTRDVNVISGLPANTSRERLDLLDDDRRVTGFSITGGEHRLRNYKSVTTVHRFEKEEEEERIWTVVLESYVVDVPEGNSEEDTRLFADTVIRLNLQKLASITEAMNYPYDVPDYAPKKKRKV
Consider B6, for which the “performance in the tested conditions” value is “highest performance”.
